# In article PMC5897047:
# Numbering of substitutions follows the chain as printed. Names and notes keep the numbering of the source.
# B1: yeast non hypusine-containing eIF5A (eIF5A-Lys), wild type (natural protein)
# chain: MSDEEHTFETADAGSSATYPMQCSALRKNGFVVIKSRPCKIVDMSTSKTGKHGHAKVHLVAIDIFTGKKLEDLSPSTHNMEVPVVKRNEYQLLDIDDGFLSLMNMDGDTKDDVKAPEGELGDSLQTAFDEGKDLMVTIISAMGEEAAISFKEAARTD
# B2: yeast hypusine-containing eIF5A (eIF5A-Hyp), wild type (natural protein)
# chain: B1 chain
# modifications: hypusine at Lys51
# B3: hypusine-containing eIF5A from mutant tif51A-4 (K86A/R87A/E89A) (natural protein)
# chain: B1 chain with K86A, R87A, E89A
# modifications: hypusine at Lys51
# B4: non hypusine-containing eIF5A from mutant tif51A-4 (K86A/R87A/E89A) (natural protein)
# chain: B1 chain with K86A, R87A, E89A
# Biological target: yeast 80S ribosome (S. cerevisiae (endogenous in yeast)) (UniProt P26321)
# Chain of UniProt P26321 (P26321 whole entry, looked up): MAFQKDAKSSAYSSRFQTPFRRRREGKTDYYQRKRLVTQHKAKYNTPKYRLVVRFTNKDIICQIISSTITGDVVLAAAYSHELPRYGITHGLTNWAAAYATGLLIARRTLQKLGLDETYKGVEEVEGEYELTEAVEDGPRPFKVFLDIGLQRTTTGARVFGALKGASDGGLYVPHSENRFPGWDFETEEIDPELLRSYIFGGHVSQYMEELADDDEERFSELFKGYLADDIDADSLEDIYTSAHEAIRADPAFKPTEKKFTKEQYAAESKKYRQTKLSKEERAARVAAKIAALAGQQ
# Assay: fluorescence polarisation
row,Ki,Binder
1,238 nM,B1
2,8 nM,B2
3,171 nM,B3
4,388 nM,B4
